Test results reported in the DeepSol protein solubility set.

Test: soluble on expression in E. coli; label from the status in PepcDB or PDB records

Sequence | soluble on expression in E. coli
MGSDKIHHHHHHMKETSRKSGASAAKGKVIITCAVTGAIHTPTMSPYLPITPDQIASEAIAAAQAGAAILHLHARDPETGKPDQTPEAFARFLPRVKQGTNAAINITTGGSPYMKVEERVRPAAQFKPEVASLNMGSINFGLYHLADKYETFKFDWEKPHLEATRDLVFRNSFKDIEYILATCYDNGTRFEFECYDIAHLYNLSHFADRGLVKPPFFVQSVFGLLGGIGTHPEDVAHMKRTADRLFGDQFRWSVLGAGASQLRIAAQSAALGGNIRVGLEDSLWAGKGKLAKSNAEQVVLARKIIEGLGMEVATPDEAREILSLKGGDKVAF | not soluble
MEEPKLILTVKNNKNNKCIIEILNRLYLKDLNSKAEEIIKNVILVYTSLTPIMAYGLLISAPPSCLAKIYPVDLVIHSVKEREIIDKITEFLKKNIQFKTFYVDCYDRGIKINCREVEIGIGIGLRGFASVDYKNPEKVIVVNVIKDSTYMSVIKKGQEKVSVISLR | soluble
ASGRRAPRTGLLELRCGAGSGAGGERWQRVLLSLAEDALTVSPADGEPGPEPEPAQLNGAAEPGAAPPQLPEALLLQREVSPYFKNSAGGTSVGWDSPPASPLQRQPSSPGPQPRNLSEAKHVSLKMAYVSRRCTPTDPEPRYLEICAADGQDAVFLRAKDEASARSWAGAIQAQIGT | soluble
MGHHHHHHSHGYRSVRERTSTSGTHRDREDSKFRRTRPLECQDALETAARAEGLSLDASMHSQLRILDEEHPKGKYHHGLSALKPIRTTSKHQHPVDNAGLFSCMTFSWLSSLARVAHKKGELSMEDVWSLSKHESSDVNCRRLERLWQEELNEVGPDAASLRRVVWIFCRTRLILSIVCLMITQLAGFSGPPTDLRKEGMNLQTLRLRSSNKHQRFPGLPRAPVYQKLLERMKH | soluble
MILIFEEHRMQLSSEQCDFFFTNGYLVINNFFSESVCDLLKQRIETLLENNQAEIPKTIFSTQTNEHAKKQYFLDSGDKIHYFFEPGAFDEAGDWLRPFNQSINKIGHALHELDPVFRQYSRDDRIKKIAHQLGLKTLGLVQSMYIFKQPGIGAEVLCHQDSTYIFGEDSDALGFWFAIEDATLENGCLEVIPSPCTTPLKQRMFRRENEIYFENFDSSPWPEENSVPLPVKKGALIILHGRVPHKSQANFSNQSRHAYTLHLVDISLPYPEKNWLQWPNGIPCLLEHHHHHH | soluble
MSEKTNPNLTLHDVTDKLEGDDEKYATALKTCGEVFAEVEAIFNDENYLSHAGWFKDESNNEGDVVYAKDTPHGRMVTISTELPMPVEDVMKETWNGMEALPEWNQNINFAARIAAPTSNFDIVTYGNNDVLVVSGREFVSARIWRKVGDGFILASRSVTVPSFKSKHKGKVRAHLHLAGARFRPNPENPETTLTDVVMLADLKGYLPKMIVNQVIGRIMIMDTVTNRRHFQNLKAKRTNN | not soluble
MGSDKIHHHHHHMPDKSLKKPFVHLIGAGPGDPGLITVKGRESLGRADVVIYDYLANDDLLRFARPDAELIYAGKIGGHHNREQWQINALLVEKALAGNVVARLKGGDSFVFGRGGEECEALVAAGIPFEIVPGVTAGIGVTAYAGIPLTHRGVTTSVTFVTGHEGHDKEVSQIDWEGLSLGSGTVVFYMGIKNLPQITANLMAHGRPPETPVALIRWGTRPEQEVLTGTLADIAEQARRTGFRAPAITVVGEVVRLREKLRWFDNRPLFGTSILVTRAADQAGEFGAMLGALGARVLECPTIAIVPPESWDNLDAAIASLDRFHWAVFTSVNAVRFFFERLAAAGKDSRALGNCRVCAVGPKTAAALAPFGIRPDLIPADYKGEGVVEVFRSEEIAGKRIIFPKGDRARDVIPQGLAELGGEVTAPVAYRNVTPDSLPAGVIAELEERRITCVTFTSSSTVENLAAILGENRFLHLLKGVTIAAIGPITARTCRELGLEVHVEPSKYTLAAMTDALVDFFSRSK | not soluble
MERVRRASHAGSWYTNNARKLDEELDGWLRAAGLTKSPDVRAVIAPHAGYSYSGRCAAYAFGNIDPTNISRVFLLGPSHHYYTPKCALTRATIYSTPIGDLPVDHEVIEELNATGKFDFMDLSVDEAEHSMEMHLPYLSKVFQGHNVKVVPILVGALNSQNEAMYGQLLSKYLDDPKNFFSISSDFCHWGTRFSYTYYDKSHGAIHKSIEALDRMGMEIIETGNPDAFKQYLQEYENTICGRHPISVFLSMLKHCLTKIKIGFVRYEQSSQCKSMRDSSVSYASAAAKVDTPAEEEKD | soluble
